# Data reported in the domain aggregation screens of Martell et al. (2025).
# Assay: soluble fraction after stress (log2 fold change); higher = more stays soluble; pooled small domains, quantitative proteomics
# Details: stress: 50 degC
# Outline: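 Pooled custom libraries of small protein domains were each held under stress at 50°C. The read-out, high-throughput quantitative proteomics, tracked how much of each protein stayed soluble. This is reported as a base-two log fold change used to indicate aggregation propensity. Higher values mean more protein remains in solution.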
row,Sequence,soluble fraction (log2)
1,HMNPMLEPAGEIRLSDGVLLRWQSERLPGDDTVRGPGSLYELGLYRVKVRVSAPQQGVRESSVELAGWRQV,-0.0771
2,HMSETVYQYVARQLRDMLGSGEIPVGQQLPTYRELAKRFQVSLSVIQRAMRQLKAEAVVSIAHGQGVKAVR,-0.42
3,HMATPTMEDYIEVIYSLVKTKGYARSADIAEKLEVYPSTVTKMLKKLDAEGYIVYEKYRGIALTDIGKKMG,-1.73
4,HMDERLAKLTPQERKILDLIAEGATNRQIGTELHLAEKTVKNYVSNMLMKLGMSRRTEAAVFAVKASIN,-0.64
5,HMSIYYQIYESLKKDLSNNLYKPGEKLPSENVLSKRFGVNRHTIRRSLQLLKNEGILFSKRGSGIIVHD,-2.32
6,HMGGGRELGLDPETGKKISVRLGKFGPFVQLGESGEEDKPVFANLGKNQSIATLSLEEAIALLARPK,0.246
7,HMKEINFTIEESAKGRLDKVIAENVADLTRSQVQSLIKKGQILVNDAPTTNRYQVKPNDQVIIKLPDPV,0.339
8,HMSKNIRQQFLDVLPKTFDRNQYLETAKKLSINAKTAEGYIKKFVEANLLDHPKHNHYINLKKVEEVETK,0.229
9,HMQSLIVPVPKPEDDPVYKDGIKQDPVEVVSIWLGRDYLNMILNLKVSTGKGHTFGIVEDVS,0.0321
10,HMFDGTLSIYPNPSKGIFNLDLLNVKDGEYTITVDNLLGQEVYSEIRNVINSSSKTLDLSNLTKGV,-0.173
11,HMPKTATIVIDLNYADAKEIVENLQTILAGETKDISVAPHPSANQIIASGDRWEVENISTIIKQLDR,0.00694
12,HMAVSVPDVMGLTYEEAYNKITAEGLLVNRLESYTGLVEKGRVISQLPVGGEPAAKGSTVNVNVSL,0.252
13,HMEDQFWQNRAEMALASARRAGRIVTYAEMADAADIPAPQRIHKLTLWLEATMRQDHASGQPLRAALV,0.0463
14,HMITDNEFLRIVSFLKQRYGIDMSQKKVIMNGRLENYLKSGGWSSFDEYMNDVEKDTSGDLEKTLVNFLTT,-0.537
15,HMPLAQRFGLTVAQARVLDLLAEGRSNRQIGELLGLTEGTVKIHVSAIMKAMGVSNRAEAALMANRKR,-0.717
16,HMPRELKVRDVSHQHAGHAGWREGGETHFEVDMKADVFAGTSRVAAHRMVNKVLANELASRVHALQLNLS,0.0371
17,HMGNGALLTLTVKERQVIQLVAEGKSNKQIARDLNVTPETIKSHMKNIFAKLKVDNRAQAAVMVQQ,-0.638
18,HMGKLGENIKRIREGMGLSQRQFGELIGKSDSQIWSYENDRTDILASTLYKIAAVANVDFNNLMAGIIP,-0.925
19,HMRGLVPEIVGTLEGEIRAGTLAVGQKLPTEAEIMARFDVSRTVVREALSRLQASDLVETRHGIGTFVSAR,-0.368
20,HMDSHSAESVRQRIKDMIAAEASKSILSDDTIVENLKSEGIEIARRTVAKYRESLNIPSSIQRRRIARSEA,-0.0963
21,HMRPTDVLNYDESMRILNFSNNRVGFKHLMDAKGIEQVIFKNRKIGYRKSEILALKSELEAEQK,-0.341
22,HMNEMSDTITRLLDAAETGIRLRGYHAVSFRDLAEELGIKSSSVHYYFRQKEDLGLAVVERY,0.0289
23,HMHEAILNQIRNEELMLYIGELSDAQQDVILLKYFHQMTFKEIAESFSIPISTVKTRHTAALKKLSTLWK,-0.16
24,HMIVAHEINRHLGESDQPVEIPDNRREGAVAELLKTFNNDDAFREMDDGKYEVALDGEKVREAARSLLA,0.027
25,HMKIEDSNTIKLKANQAYKTHYYSEAIKLYDELLTKYEPNSEAIKLNLAHAHFKAKGFAAASKLYT,0.144
26,HMYALGIPVSQYRRTTQVLGHESSYPIAYEDEKQDDDFYLFKFPNIDEYDFKKIVILLKQNGITT,-1.61

row,Sequence,soluble fraction (log2)
1,HMENNIPANIKALIISYVNQNYPGAVIHSIERNSNGTYDVEIYYNNREYDLLFDAQGNFISGNVDDQ,0.0611
2,HMNNKVAVKSGYYFEIFNKEEIPTTLAKTKQKVKINNIQYDLYQGMSLDDERKIDDMFGDRMGYSIDDY,-1.04
3,HMGTPSAEELAFSAQKGNAVMRIMEIREKYIENGGQISDEERNEIERLIAIYYPKASIFDYLPMMG,-0.136
4,HMNQTEKSKITHNELLKAAHSLFIEQGFNHTTITDIVTRAGYSTGIFYKHYKTKTDILVELWTNYIE,-2.31
5,HMTVDAVALGRRVRHLRKQAGLTLDQLAERTGVSGSHLSLVENARREPRLSLVQRIAEVLGVPVEDL,-1.17
6,HMDATIGGFKITDSAIYSGVKNNVNAGVRGTYIDKDGQIAFGDSNSYLKYYKDTDGKWKLEVSASSVKF,0.139
7,HMDNIPAHIKAKIINYVNRNYPGAIIKDIERKSNGRYEAEIVYNNREYDLLFDAQGNFISASLDDK,0.123
8,HMSPDLNEVEEKVFRALNGVESMHVNKLGIELNLPVSELFFTLLELEMKNVVKALPGGMYKL,-1.95
9,HMYTVRDGDTVFGILNRFGVSLDELLSLNPELSNGLKAGMVLKIK,-0.491
10,HMEFVEERRNRMLDYIGENKRADVPELARHFDVTEVTIRRDLLILEQDGKLIRTHGGAMINR,-0.433
11,HMFASSADGVEGLKTNPIFASTKEKSDAGKLLYTRYLAIGIFRMLELAKATDPKALEALVEAGG,0.0895
12,HMTTQVNTVKIQLANGYEMTVLTSKTNVKEILEDNNIILENNEKVTPNIDEEISSNKTIKITDKSN,0.146
13,HMEIPTPAELREKRIRMGLKQADVARMAGISQSMVARIESGSVDPRVSTLAKIVEVLQAAER,-0.175
14,HMALALDDLFDRYEQLQDQSLGDKTEEGQELRAMIRAYIEQEGLSVRVTRSTTNRELLELIEQEMEG,-0.174
15,HMIGVQEFAMTYALTRRETEITQLIIQGKSNAMIAGELFISETTVKKHVSNIFEKTGVSRREELMVRVQAE,-1.44
16,HMTRAETPMAFIRAMVEAYTERGLDPNQALRKAQITPSQLKSTNARVTTLQMEWMSETAMREL,0.0088
17,HMGGQFVKVEVIAQIFGVTVRRVQQLTQEGVVKTTEIPGEGRRYELVPTIKTYIQYLSDKAY,-4.01
18,HMDYNYLVFVTNTGPRSIAVEDLEMTVSDGKLVVSSGADGETFDLSTLTKMYFSDAAVVSINDV,-0.996
19,HMADNILPAQTDAIKALATENGFSNESLEKYLIENYGTTIYGLSRNQGIQIINLFQSENPPKP,0.144
20,HMLADRANMAPAALRQIMTAIDGGNVTPKQIESATGMAHATVARALRKMLDDGLIANDGKGRYTVLT,-0.0609
21,HMDKEQVTFIFRDIDIALRSLDYPIKDIKNTLNIIKSEFSNSKSTELNEQKINFENILKEAISILENND,-0.627
22,HMPPAPGHDLTEREREVLRLLVEGLSNQEISDRLVISQSTVKNHVSSVLSKLDAANRAEAVALALKNQL,0.00346
23,HMGTSSAEIAAELRAQIFAGELRPGEMLPSAREITGTWNVAIATASRVHALLRSEGLATPVPGVGTVVAT,0.0105
24,HMGMESFWNRVANLLNTSTVVELAQILDVKRSTLSSWIHSDRRPPMEVLLKITRLTGVDIHRLE,-1.56
25,HMKVTRWEDTGMKPAEAQEWQHYDFKPQEAMNWRDAGFVPLVARTWSDKGFDASEAQAWRDSVRNS,-0.19
26,HMYEENFSKIKNDISTIFKRHKISFTNNFISHLSSVFNTDSLTNKMELEKLDSFLINNKKVTENELLKFII,-0.025

row,Sequence,soluble fraction (log2)
1,HMELNEIEFENLKESIIIHLEKESLSPHELVKHIQTIHPDKVTAVIQWMLENGFIKTDAGGQLTLVSK,0.135
2,HMKNDNIHMMASKINGIALEVGVLTPGMHPKNDLSEGEVGYIVTNLKTTREAKVGDTVTLAKKPAATPLPG,0.254
3,HMFLPGETFDVKIVKIGEGENQGVGYLDDGTMIVIENGRDHLNELARVIVTRVLQNSAGQMIFSDYEE,-2.27
4,HMLSSREEKILNYLNEHQIITRKKAQELLETSQSTAGRVLKIMVDNGLIVQYGGSRSIWYELIK,-0.939
5,HMQKPDIEVDFAEGDMVVVTGGAWKDTAGVITGINMQKQTVTINVELFGRETPVEISFTEIKKA,0.00574
6,HMKQISNTDELESMAKNIIQENPDQVSKFKNGNEKLFGWFVGQMMKSTGGTANPKVVNEILKNLLN,0.152
7,HMKRLQEQAYDYLKELILSGKMIENEIYSETKLASEIGISRTPIRDALQRLSQDGFIDIIPSKGFRIH,-0.134
8,HMNADTVIGKAGTVIEKIDNVAATGAVKIDGKVWTARSERDNITIDEGTLVKAMAIEGVKLIVEPVT,0.198
9,HMGAVDIATARQLISEIGLPIMLKAEGGGGGRGIFAIHNEAELEDAFFKASTMAQASFGNPRLFVEKF,-0.228
10,HMGEPLSPDARALTNVLRHYRGWAEPGELARKSGLGSRERVLTAAQSLVNAGLADIERGMVRPTAALMEVQ,0.0805
11,HMPQPDVIEVRQGIVTGMRPDRRTGWLRDEEDAAGEPKSFSIDVITPKGRTPGKGAVVTYTLTNGKITEVK,-0.0415
12,HMKRSVIVTAERAEVRQKADEGSALVFEAEKNVSLEYLEAAPGGWVKVRHLDGQSGFVRGNQI,-0.37
13,HMQTNEAIINQAVQAAEAQNITTRSQAVDALKANGMTEAQARQLAVQRGISYDQLINELFPME,-0.0275
14,HMEYYWHQLKGLEVVNTRGESLGRVRRLLETGANDVLVLEGEQERLIPYVPDTIKQVDLAKGLIEVAWDRD,-0.0728
15,HMPRTEILMVDEEMEGERLDAFVAEQLDELSRSLVKTLIENGEIRVDGKQQKPSYRLKAGEEIIVEIPA,0.208
16,HMNELIGVEQLQDLREAIADHGFAEQRVLNWLYQATKGQVSRLEQLPLPMLTTLHKKLGQWADAEAAASSA,-0.0602
17,HMVSLSNQVFEKIEYDILSGKYKIGEIISEKRLSSELGVSRTPIREALGRLSEEGLVGDSPSGTVVLGI,-0.431
18,HMDDEAVQIMTLHISKGLEFDVVFALGLVSRTPESKEIEELEAEKQRQLYVAMTRAEKWLIVAA,-0.12
19,HMGTDGLKDIVLEILKEHPNQLAELIDGKQKVLGFLVGQVMKKTNGAANPKEVNEIIQGEIKK,-0.0707
20,HMDSIQMKNNSILYYGNTAGYLDAKRNTAVVDPMFRTDEMESYLSEQKGLSVEWASGTYDRLT,0.149
21,HMKQQAYEQGKAAYQSGDWLRAVTQLGQVKEAGEKNGEVDHLLGNAYMKLGQFESAAYAYNSALEDVA,0.269
22,HMANLAQITKTNAVALALKDVGAYNSEDLMKFIDLDKVVLGEDGKPQLEDTINSLKESSPYLFQ,0.0767
23,HMDVALEALDESDGAVRLQFSGALQTYLNDSTTAASLEAISKTFRAFYEAAGRPVDTLEVYAAGEPVT,0.06
24,HMQDLEIKINLGMTYYEVREAIGSPDIIDKINQYGRDFQMWTYYIDDKTKRYYFEDHLLTKI,-3.33
